The target in the assay is human FSH receptor (human) (UniProt P23945). Put plainly: cell-based or functional assay.
Sequence of human FSH receptor (human) (P23945 18-695): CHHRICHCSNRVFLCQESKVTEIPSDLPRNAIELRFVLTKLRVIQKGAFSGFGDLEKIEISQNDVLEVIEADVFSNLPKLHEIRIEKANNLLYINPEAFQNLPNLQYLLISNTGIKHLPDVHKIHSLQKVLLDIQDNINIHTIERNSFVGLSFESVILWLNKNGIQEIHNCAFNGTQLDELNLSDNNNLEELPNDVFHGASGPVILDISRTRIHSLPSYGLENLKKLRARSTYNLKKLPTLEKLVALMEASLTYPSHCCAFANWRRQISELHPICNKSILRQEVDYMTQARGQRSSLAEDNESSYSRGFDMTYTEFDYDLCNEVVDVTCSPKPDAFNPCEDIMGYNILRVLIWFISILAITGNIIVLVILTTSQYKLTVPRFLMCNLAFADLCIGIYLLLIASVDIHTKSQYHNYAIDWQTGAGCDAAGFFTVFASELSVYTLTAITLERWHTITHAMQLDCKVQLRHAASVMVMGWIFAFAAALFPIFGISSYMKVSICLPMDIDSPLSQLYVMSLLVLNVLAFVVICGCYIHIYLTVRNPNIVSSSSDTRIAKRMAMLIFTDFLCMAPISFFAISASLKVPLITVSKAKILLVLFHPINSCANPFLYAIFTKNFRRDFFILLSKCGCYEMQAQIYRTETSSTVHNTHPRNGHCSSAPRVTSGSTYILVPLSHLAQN

“FSH-Fc/Fc heterodimer (from UniProt P01215 25-116; P0DOX5 223-449) (Fc fusion)”: the 50% effective concentration (EC50) of cAMP production in CHO-FSHR cells stood at 204 pM and the in vitro biological activity relative to Gonal-F (cAMP production in CHO-FSHR cells) was found to be 50%.

(Values after US20190055295A1.)
